Data taken from the RNAGym collection of RNA variant scans (doi:10.1073/pnas.2313332121).
Fewer inactive variants are shown than the library holds.

B1: TPR 5TU (parent)
chain: GGAUCUUCUCGAUCUAACAAAAAAGACAAAUCUGCCACAAAGCUUGAGAGCAUCUUCGGAUGCAGAGGCGGCAGCCUUCGGUGGCGCGAUAGCGCCAACGUUCUCAACUAUGACACGCAAAACGCGUGCUCCGUUGAAUGGAGUUUAUCAUG

Variants of: B1
Experiment: polymerase ribozyme fitness, log enrichment relative to wild type (log ratio); higher = more active; in vitro selection for triplet polymerase activity
Method in brief: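 Streptavidin-bead capture of gel-excised extended constructs, followed by RT-PCR, closed a single triplicate in vitro selection round. That round began by annealing PCR-built, transcribed mutant libraries of each subunit of a heterodimeric triplet polymerase ribozyme with a biotinylated primer, the partner subunit and triplets, then incubating them frozen at −7 °C. After Illumina sequencing of inputs and outputs, genotypes needed ≥10 input reads and ≥1 read per output. Fitness is the base-2 logarithm of genotype enrichment over wild-type enrichment, using inverse-variance-weighted replicate averages.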
For C8U C57U, the “polymerase ribozyme fitness (log ratio)” value was -3.18.
For C8G G67C G92U C99U A107U U148A, the “polymerase ribozyme fitness (log ratio)” value was no more than -4.2.
For U9C C85U, the “polymerase ribozyme fitness (log ratio)” value was -3.24.
In the case of C10A C87U, the “polymerase ribozyme fitness (log ratio)” value is reported as -3.47.
In the case of C8A A30U G71A U82G C95A C103G U134A G141U, the “polymerase ribozyme fitness (log ratio)” value is reported as no more than -4.2.
With C8G A21C the “polymerase ribozyme fitness (log ratio)” value was -3.31.
In the case of C8U C57U U61A G117A A121U U134C, the “polymerase ribozyme fitness (log ratio)” value is reported as -4.09.
With U9G G68C G83A G84A C149U the “polymerase ribozyme fitness (log ratio)” value was no more than -4.2.
In the case of U7G G34U A60U C93U A107U, the “polymerase ribozyme fitness (log ratio)” value is reported as no more than -4.2.
For U7G A12C C51G A64C C123U C132G, the “polymerase ribozyme fitness (log ratio)” value was no more than -4.2.
With U9A A28G A41C A64U G80U C87A C95U C131G the “polymerase ribozyme fitness (log ratio)” value was no more than -4.2.
In the case of U9G G59C G92C A107G A115G, the “polymerase ribozyme fitness (log ratio)” value is reported as no more than -4.2.
With U9C A17C C54U A120G the “polymerase ribozyme fitness (log ratio)” value was no more than -4.2.
With C8A A12G A41C A47G U53A G143U U151C the “polymerase ribozyme fitness (log ratio)” value was no more than -4.2.
In the case of C8A A49G G71A C93U G152A, the “polymerase ribozyme fitness (log ratio)” value is reported as no more than -4.2.
With U9C C18G A21G A29U C87G the “polymerase ribozyme fitness (log ratio)” value was no more than -4.2.
With C8A G50U G74C G80A C85U U139C G141C the “polymerase ribozyme fitness (log ratio)” value was no more than -4.2.
With C8U A24U U55G C69U G74U C87A A138U the “polymerase ribozyme fitness (log ratio)” value was no more than -4.2.
In the case of U7A U61A G62A G71C C103G, the “polymerase ribozyme fitness (log ratio)” value is reported as no more than -4.2.
With U9A A21U the “polymerase ribozyme fitness (log ratio)” value was -3.81.
In the case of C10A A37U C79A C85U C87A, the “polymerase ribozyme fitness (log ratio)” value is reported as no more than -4.2.
With C8U C10G C35G C57A A66U G86U U134C U139C U148A the “polymerase ribozyme fitness (log ratio)” value was no more than -4.2.
With C8A A40U C57U U78A A119C the “polymerase ribozyme fitness (log ratio)” value was no more than -4.2.
For C8U C93A, the “polymerase ribozyme fitness (log ratio)” value was no more than -4.2.
For C8G A52G, the “polymerase ribozyme fitness (log ratio)” value was -3.17.
With U7C the “polymerase ribozyme fitness (log ratio)” value was -1.19.
In the case of U7G, the “polymerase ribozyme fitness (log ratio)” value is reported as -2.22.
In the case of C8A C10G G50U C51G U56G C57G G62A G86A, the “polymerase ribozyme fitness (log ratio)” value is reported as no more than -4.2.
With C10A A17C A20C G34U G58C U90G the “polymerase ribozyme fitness (log ratio)” value was no more than -4.2.
For C10A A12U A47U C93G A137G, the “polymerase ribozyme fitness (log ratio)” value was no more than -4.2.
In the case of C8A U31C A41U G58A G71A C76U C125U A142G, the “polymerase ribozyme fitness (log ratio)” value is reported as no more than -4.2.
In the case of U7A C27A U31G A66U U146G A150U, the “polymerase ribozyme fitness (log ratio)” value is reported as no more than -4.2.
With U9G A21U A24G C72U A147C the “polymerase ribozyme fitness (log ratio)” value was no more than -4.2.
With U9C A40C U56A C96G U101C U134C the “polymerase ribozyme fitness (log ratio)” value was no more than -4.2.
In the case of C8G C87U, the “polymerase ribozyme fitness (log ratio)” value is reported as -3.36.
With U7C C10U A40C C85A A89C G100A C116A the “polymerase ribozyme fitness (log ratio)” value was no more than -4.2.
For C8U A20C A49G U53A C95A A106G C118G, the “polymerase ribozyme fitness (log ratio)” value was no more than -4.2.
For C8U A52U U56A U61A C75U C93U C99G C132G, the “polymerase ribozyme fitness (log ratio)” value was no more than -4.2.
In the case of U7A G50A U78A C79G G86A C87A C99G A115U G141U, the “polymerase ribozyme fitness (log ratio)” value is reported as no more than -4.2.
For U9G A21U C35U U55A C108U C118U G128A G133A, the “polymerase ribozyme fitness (log ratio)” value was no more than -4.2.
With U9G U33A G50A the “polymerase ribozyme fitness (log ratio)” value was -4.2.
With C10A G11U A30U C36A G48A C87G A122G the “polymerase ribozyme fitness (log ratio)” value was no more than -4.2.
In the case of U7C G50U C87A U90A A106C, the “polymerase ribozyme fitness (log ratio)” value is reported as no more than -4.2.
In the case of C10A A37U G48A A64G G128U A142C, the “polymerase ribozyme fitness (log ratio)” value is reported as no more than -4.2.
With C8G C32U G80U the “polymerase ribozyme fitness (log ratio)” value was -4.14.
In the case of U7G A60G, the “polymerase ribozyme fitness (log ratio)” value is reported as -2.7.
In the case of U9G C10U U77G G83A A110G, the “polymerase ribozyme fitness (log ratio)” value is reported as no more than -4.2.
In the case of U9A G25C C38U G71U U135C A147G, the “polymerase ribozyme fitness (log ratio)” value is reported as no more than -4.2.
For U7C A21C U33G C43U G62A C87U, the “polymerase ribozyme fitness (log ratio)” value was no more than -4.2.
For U9G A17G A41G U53A U77G G84U C116A G141A A147G, the “polymerase ribozyme fitness (log ratio)” value was no more than -4.2.
In the case of U9C A37U G92A U102G C108U, the “polymerase ribozyme fitness (log ratio)” value is reported as no more than -4.2.
With C10A G58C A66U G80A C95U C96U U144G the “polymerase ribozyme fitness (log ratio)” value was no more than -4.2.
In the case of C10A C27G G46A C75A C96A, the “polymerase ribozyme fitness (log ratio)” value is reported as no more than -4.2.
In the case of U9G C18U A39G A49C C51A G94U A106G, the “polymerase ribozyme fitness (log ratio)” value is reported as no more than -4.2.
With U7C C27G C96U the “polymerase ribozyme fitness (log ratio)” value was no more than -4.2.
For U7G C8A G46C C63U G83C C85G C114G C149A, the “polymerase ribozyme fitness (log ratio)” value was no more than -4.2.
For C8G A20C, the “polymerase ribozyme fitness (log ratio)” value was -3.59.
In the case of C8A A17U U55A G81C C87A A91U U144C U145C, the “polymerase ribozyme fitness (log ratio)” value is reported as no more than -4.2.
With U9G A12U A19U A21U G58A C76U G84A A106U the “polymerase ribozyme fitness (log ratio)” value was no more than -4.2.
In the case of U9C A24U A41G C75U G83A G84A C93A, the “polymerase ribozyme fitness (log ratio)” value is reported as no more than -4.2.
With C8A A20G G68C C85A G126A the “polymerase ribozyme fitness (log ratio)” value was no more than -4.2.
For C8A C14G C27U G46A C76A U109G C131U G143A, the “polymerase ribozyme fitness (log ratio)” value was no more than -4.2.
With U9C A12C A20G U53A A73U G92U C114A A121U G140A U151A the “polymerase ribozyme fitness (log ratio)” value was no more than -4.2.
For C8U A49U A52G, the “polymerase ribozyme fitness (log ratio)” value was -3.79.
In the case of C10A C32A C54U C116A G143A, the “polymerase ribozyme fitness (log ratio)” value is reported as no more than -4.2.
In the case of U7A C18A U33G A66U G84A G100A G124C, the “polymerase ribozyme fitness (log ratio)” value is reported as no more than -4.2.
In the case of C10A C54G G80C G81A C85U C129A U135C, the “polymerase ribozyme fitness (log ratio)” value is reported as no more than -4.2.
In the case of U9G U61A C75U C85U G124C, the “polymerase ribozyme fitness (log ratio)” value is reported as no more than -4.2.
In the case of C8U G92C U111C, the “polymerase ribozyme fitness (log ratio)” value is reported as no more than -4.2.
With C8U C18A A20C A23C G62C A89G G136U the “polymerase ribozyme fitness (log ratio)” value was no more than -4.2.
For U9G U31G G83C C99U U144G, the “polymerase ribozyme fitness (log ratio)” value was no more than -4.2.
In the case of C8A C32G A47U C54G G92U, the “polymerase ribozyme fitness (log ratio)” value is reported as no more than -4.2.
In the case of C8G G62C G70U C96A C103U, the “polymerase ribozyme fitness (log ratio)” value is reported as no more than -4.2.
In the case of C8U A19G A39U C54U U61A G71A U77A G80C G88U G112C A113G C125G A150U, the “polymerase ribozyme fitness (log ratio)” value is reported as no more than -4.2.
With C8A A22C C35U G48C A73U the “polymerase ribozyme fitness (log ratio)” value was no more than -4.2.
With C8A G42U G50A G74U C95U the “polymerase ribozyme fitness (log ratio)” value was no more than -4.2.
In the case of U9C A52G U53A C114G U145G, the “polymerase ribozyme fitness (log ratio)” value is reported as no more than -4.2.
In the case of C8U C95U, the “polymerase ribozyme fitness (log ratio)” value is reported as -2.24.
In the case of U7G A20C U56G U146G, the “polymerase ribozyme fitness (log ratio)” value is reported as -3.82.
For U9G A47G, the “polymerase ribozyme fitness (log ratio)” value was -3.86.
With C8U A19C U33G U53A U55A C96G C108U the “polymerase ribozyme fitness (log ratio)” value was -3.8.
For U9G C96U A97G C103G A115U U127A, the “polymerase ribozyme fitness (log ratio)” value was no more than -4.2.
In the case of C8G A17G A21U A98G, the “polymerase ribozyme fitness (log ratio)” value is reported as -3.93.
For C8A C14U A16U U33G A47U C57A C93A A142U, the “polymerase ribozyme fitness (log ratio)” value was no more than -4.2.
